Two molecules from US20050089538A1 (IMMUNOMEDICS, published 2005) can be followed below.

Test [1] addresses T1, carcinoembryonic antigen (human, UniProt P06731 35-685, limits assumed).
T1 construct: CEA sample fixed to a solid support, directly or through a capture antibody such as MN-15; also called CEA
T1 sequence (looked up): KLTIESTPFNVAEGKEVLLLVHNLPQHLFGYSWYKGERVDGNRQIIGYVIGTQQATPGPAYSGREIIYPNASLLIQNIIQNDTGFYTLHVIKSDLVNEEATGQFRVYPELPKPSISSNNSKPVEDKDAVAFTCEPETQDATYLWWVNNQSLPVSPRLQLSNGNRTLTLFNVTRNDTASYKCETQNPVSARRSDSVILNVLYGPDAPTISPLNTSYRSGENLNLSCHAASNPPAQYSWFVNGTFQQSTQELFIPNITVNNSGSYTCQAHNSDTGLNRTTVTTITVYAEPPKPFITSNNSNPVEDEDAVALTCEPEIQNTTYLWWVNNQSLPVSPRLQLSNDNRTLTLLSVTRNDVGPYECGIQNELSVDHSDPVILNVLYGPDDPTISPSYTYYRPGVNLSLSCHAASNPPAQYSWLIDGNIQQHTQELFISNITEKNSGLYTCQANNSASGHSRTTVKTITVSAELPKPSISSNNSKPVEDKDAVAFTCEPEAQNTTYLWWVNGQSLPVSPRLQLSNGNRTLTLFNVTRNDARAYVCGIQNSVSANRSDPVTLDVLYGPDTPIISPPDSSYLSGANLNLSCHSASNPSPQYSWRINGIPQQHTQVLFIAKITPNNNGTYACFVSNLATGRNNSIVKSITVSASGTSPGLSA
Nature of the test: MN-14 blocking assay on CEA, competitor HRP-labeled MN-14 (FIG. 9). As to the method:
(§1) The humanized KLHuVH varients, such as antibody KLHuVHAIGA/HuVK, were purified and tested in a blocking assay carried out as follows. Antibodies were added at the indicated concentrations together with HRP-labeled MN-14 to a final volume of 0.1 ml. Following 30 mins. of incubation at 37₁C, and washing to remove unbound antibodies, the relative affinities of the antibodies were determined from the remaining bound peroxidase activity. A shown by the assay data of FIG. 9, the activity of the “reshaped” (i.e., CDR-engrafted on FR) humanized antibody was similar to that of chimeric and murine positive controls.

In test [2] the target is T1, carcinoembryonic antigen. Nature of the test: MN-14 blocking assay on CEA, unlabelled murine MN-14 against HRP-labeled MN-14 (FIG. 9). As to the method:
as §1

B1: chimeric MN-14 antibody (MN-14 mouse VH and VK joined to human IgG1 and human kappa constant regions) (antibody, V domains shown)
VH: EVKLLESGGGLVQSGGSLKLSCAASGFDFTTYWMSWVRQAPGKGLEWIGEIHPDSSTINYAPSLKDKFIVSRDNAKNTLYLQMSKVRSEDTALYYCASLYFGFPWFAYWGQGTPVTVSA
VL: EIQLTQSHKMMSTSVGDRVSITCKASQDVGTSVAWYQQRPGQSPKLLIYWTSTRHTGVPDRFTGSVSGTDFTLTITNVQSEDLADYFCQQYSLYRSFGGGTKLEIK
notes: Human IgG1 constant region (Takahashi et al.) and human kappa constant region (Hieter et al.); The variable regions were re-amplified with primers VH1BACK/VH1FOR and VK8BACK/VK3FOR, so their terminal residues may be dictated by the primers; also called chimeric control; chimeric antibody
Regarding B1, the binding result with carcinoembryonic antigen [1] is listed as “binds”.

B2: murine anti-CEA IgG1 monoclonal antibody MN-14 (antibody, V domains shown)
VH: B1 VH
VL: B1 VL
notes: Murine kappa IgG1; also called mMN-14; murine control
In the case of B2, the binding result with carcinoembryonic antigen [2] is recorded as “binds”.
